Measured values from paper PMC9475456, “DDX56 transcriptionally activates MIST1 to facilitate tumorigenesis of HCC through PTEN-AKT signaling”.

Biological target: T1, DDX56 (His-DDX56) (human, UniProt Q9NY93 1-547)
T1 sequence: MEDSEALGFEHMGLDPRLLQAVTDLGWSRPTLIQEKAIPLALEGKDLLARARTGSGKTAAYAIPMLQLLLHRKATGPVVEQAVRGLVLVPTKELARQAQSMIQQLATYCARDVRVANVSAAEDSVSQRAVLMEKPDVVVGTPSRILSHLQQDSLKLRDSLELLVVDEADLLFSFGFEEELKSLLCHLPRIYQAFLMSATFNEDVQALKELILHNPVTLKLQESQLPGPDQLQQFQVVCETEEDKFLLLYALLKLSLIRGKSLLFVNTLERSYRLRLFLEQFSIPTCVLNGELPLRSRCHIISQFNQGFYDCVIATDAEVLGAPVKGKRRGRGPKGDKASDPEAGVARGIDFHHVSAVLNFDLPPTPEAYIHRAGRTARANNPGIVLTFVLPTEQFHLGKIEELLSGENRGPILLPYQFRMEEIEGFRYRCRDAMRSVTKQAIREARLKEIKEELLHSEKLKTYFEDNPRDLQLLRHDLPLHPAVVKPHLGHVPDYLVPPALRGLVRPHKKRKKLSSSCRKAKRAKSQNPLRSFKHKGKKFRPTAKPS
Test: EMSA; 5 mM Mg2+; poly(dI-dC); supershifted by DDX56 antibody; LightShift EMSA kit, 20 uL: 2 uL 10x binding buffer, 1 uL 50% glycerol, 1 uL 100 mM MgCl2, 1 ug/uL poly(dI-dC), 1 uL 1% NP-40, 2 ug protein; supershift at room
Details: protein: commercial; tags: N-terminal His; label: 5' biotin; blunt

B1: MIST1 promoter -160 to -117 (dsDNA)
DNA 1: GCCACCTGGTCCGGGAGCCCCAGGCGCCGGCCTCCCGCCCGCCC
DNA 2: GGGCGGGCGGGAGGCCGGCGCCTGGGGCTCCCGGACCAGGTGGC
- binding result: binds
